This note sets out measurements from PMC3656037.

The term Kd denotes a measure of binding affinity in units of concentration.

This data set has as its system Sau-PolC-ΔNΔExo (Staphylococcus aureus). The data set is described as follows: active site titration (pre-steady-state burst amplitude vs DNA, quadratic fit). Particulars: Reaction buffer, salt, pH and temperature not given in the material; DNA annealed in 10 mM Tris-HCl pH 8, 1 mM EDTA, 100 mM NaCl; protein stored in 50 mM ….

primer/template (p/t) DNA: the Kd stood at 390 nM.
